Data reported in patent US20230357407A1.

Target: huTIM-3 Fc (R&D; cat.no. 2365-TM) (human) (UniProt Q8TDQ0)
Test: Galectin-9 blocking ELISA: coated Galectin-9 (competitor), 0.1875 ug/ml huTIM-3 Fc with negative control antibody; signal is huTIM-3 Fc bound

huTIM-3 Fc (R&D; cat.no. 2365-TM) (human), sequence (Q8TDQ0 22-200 limits assumed): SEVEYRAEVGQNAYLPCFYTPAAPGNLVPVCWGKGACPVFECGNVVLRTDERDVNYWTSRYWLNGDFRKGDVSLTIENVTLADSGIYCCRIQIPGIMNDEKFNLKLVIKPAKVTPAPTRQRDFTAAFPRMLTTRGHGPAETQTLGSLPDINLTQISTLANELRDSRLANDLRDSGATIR

negative control antibody (Ctrl mAb) was tested, and the OD was 1.15 OD450.
